# Reference: patent US7838294B2, “Inhibitors of the JNK signal transduction pathway and methods of use” (University of Massachusetts, priority 1997, dated 2010)
# B1: JIP-1: 660 amino acid murine cytoplasmic protein that specifically binds JNK (protein)
# chain: MAERESGLGGGAASPPAASPFLGLHIASPPNFRLTHDISLEEFEDEDLSEITDECGISLQCKDTLSLRPPRAGLLSAGSSGSAGSRLQAEMLQMDLIDAAGDTPGAEDDEEEEDDELAAQRPGVGPPKAESNQDPAPRSQGQGPGTGSGDTYRPKRPTTLNLFPQVPRSQDTLNNNSLGKKHSWQDRVSRSSSPLKTGEQTPPHEHICLSDELPPQGSPVPTQDRGTSTDSPCRRSAATQMAPPSGPPATAPGGRGHSHRDRIHYQADVRLEATEEIYLTPVQRPPDPAEPTSTFMPPTESRMSVSSDPDPAAYSVTAGRPHPSISEEDEGFDCLSSPERAEPPGGGWRGSLGEPPPPPRASLSSDTSALSYDSVKYTLVVDEHAQLELVSLRPCFGDYSDESDSATVYDNCASASSPYESAIGEEYEEAPQPRPPTCLSEDSTPDEPDVHFSKKFLNVFMSGRSRSSSAESFGLFSCVINGEEHEQTHRAIFRFVPRHEDELELEVDDPLLVELQAEDYWYEAYNMRTGARGVFPAYYAIEVTKEPEHMAALAKNSCVLEISVRGVKIGVKADDALEAKGNKCSHFFQLKNISFCGYHPKNNKYFGFITKHPADHRFACHVFVSEDSTKALAESVGRAFQQFYKQFVEYTCPTEDIYLE
# Assays:
# [1] = target: ERK2 (Homo sapiens, UniProt P28482); assay: Co-immunoprecipitation of JIP-1 with ERK2 (specificity control); format: binding; conditions: control experiment
# Sequence of ERK2 (P28482 whole entry, species assumed): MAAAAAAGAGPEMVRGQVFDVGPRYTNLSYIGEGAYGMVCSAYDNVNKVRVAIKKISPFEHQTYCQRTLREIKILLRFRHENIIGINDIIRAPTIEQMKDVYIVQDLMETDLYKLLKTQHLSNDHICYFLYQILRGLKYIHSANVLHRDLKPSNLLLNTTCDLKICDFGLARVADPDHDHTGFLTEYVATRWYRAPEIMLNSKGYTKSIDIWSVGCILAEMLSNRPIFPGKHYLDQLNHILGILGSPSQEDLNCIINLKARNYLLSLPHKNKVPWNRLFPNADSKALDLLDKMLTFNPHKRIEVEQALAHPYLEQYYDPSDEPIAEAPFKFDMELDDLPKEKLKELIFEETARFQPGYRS
# [2] = target: p38 (Homo sapiens, UniProt Q16539); assay: Co-immunoprecipitation of JIP-1 with p38 (specificity control); format: binding; conditions: control experiment
# Sequence of p38 (Homo sapiens, UniProt Q16539) (Q16539 whole entry, the tested form may be a part): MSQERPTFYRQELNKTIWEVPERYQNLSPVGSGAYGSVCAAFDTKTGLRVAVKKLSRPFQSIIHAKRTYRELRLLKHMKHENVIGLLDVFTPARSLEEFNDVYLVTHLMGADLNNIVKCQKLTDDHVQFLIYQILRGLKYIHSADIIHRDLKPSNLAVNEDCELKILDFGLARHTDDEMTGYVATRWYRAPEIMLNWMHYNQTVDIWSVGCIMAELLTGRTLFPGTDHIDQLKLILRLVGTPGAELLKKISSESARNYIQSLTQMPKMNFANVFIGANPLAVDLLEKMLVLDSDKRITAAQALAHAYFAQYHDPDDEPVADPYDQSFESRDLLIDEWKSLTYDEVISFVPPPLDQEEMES
# [3] = target: T1, JNK1 (Homo sapiens, UniProt P45983); assay: GST-fusion pull-down from cell lysates, Flag immunoblot: JNK1; format: binding; conditions: GST pull-down, Flag immunoblot
# T1 construct: expressed in transfected cells
# T1 sequence (P45983 1-384 isoform P45983-2): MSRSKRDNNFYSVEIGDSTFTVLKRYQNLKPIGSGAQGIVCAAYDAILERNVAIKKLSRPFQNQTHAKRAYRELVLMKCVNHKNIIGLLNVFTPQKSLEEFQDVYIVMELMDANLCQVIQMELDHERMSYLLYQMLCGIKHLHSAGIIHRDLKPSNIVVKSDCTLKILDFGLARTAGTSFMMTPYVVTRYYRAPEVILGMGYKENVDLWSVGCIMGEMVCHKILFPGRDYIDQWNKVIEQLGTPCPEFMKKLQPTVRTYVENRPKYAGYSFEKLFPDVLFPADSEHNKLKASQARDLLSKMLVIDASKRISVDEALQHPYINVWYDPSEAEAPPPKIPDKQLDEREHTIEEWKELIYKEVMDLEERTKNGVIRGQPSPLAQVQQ
# Experimental: To test whether JIP-1 binding to JNK is also isoform-dependent, a binding assay was utilized. Cell lysates (1 ml in TLB) containing JNK1, JNK2, or p38 MAP kinase, each tagged with the Flag epitope, were incubated with 5 μg GST-fusion proteins pre-bound to 10 μl glutathione-Sepharose. The GST fusion proteins used contain residues 127-202 (SEQ ID NO:15), 203-281 (SEQ ID NO:16), 164-240 (SEQ ID NO:17), or 127-281 (SEQ ID NO:4) of JIP-1. The GST-ATF2 fusion protein contains residues 1-109 of ATF2, and the GST-Jun fusion protein contains residues 1-79 of c-Jun. After incubation for one hour at 4° C. and three washes with TLB, bound proteins were detected by protein immunoblot analysis with the M2 monoclonal antibody, which is specific for the Flag epitope. Dérijard, et al., supra; Sluss et al., supra; Gupta et al., supra. […] This finding is consistent with the results of previous studies. In contrast, when GST-JIP-1 fusion proteins containing residues 127-202 or 127-281 of JIP-1 were tested in the assay, these proteins bound both JNK1 and JNK2.
# The GST-JIP-1 fusion proteins containing various portions of the JIP-1 gene were used to define regions of JIP-1 that are required for JNK interaction. A GST-JIP-1 fusion protein containing residues 127-281 of JIP-1 bound both JNK1 and JNK2.
# To more precisely define the JIP-1 sequence required for JNK binding activity, additional […] fusion proteins were constructed. These fusion proteins contained residues 135-202 (SEQ ID NO:18), 144-202 (SEQ ID NO:19), 154-202 (SEQ ID NO:20), 164-202 (SEQ ID NO:21), 127-143 (SEQ ID NO:22), 127-153 (SEQ ID NO:23), or 127-163 (SEQ ID NO:24) of JIP-1. Proteins containing residues 127-202, 135-202, 144-202, […], and 127-163 all bound both JNK1 and JNK2. Thus, JIP-1 residues 144-163 are important for the interaction of JIP-1 with JNK.
# [4] = system: JNK; assay: Immune complex protein kinase assay: JNK, substrate GST-Jun; format: biochemical, Chinese hamster; conditions: in vitro, 3 μg GST-Jun, 30 minutes at 30° C.
# Experimental: (§1) To test whether JIP-1 competes with Jun and ATF2 for interaction with JNK, the effect of JIP-1 on transcription factor-mediated phosphorylation of exogenous substrates was analyzed using an in vitro protein kinase assay. In these experiments, Chinese hamster ovary (CHO) cells were serum-starved for one hour. In some experiments, the cells were treated with 10 ng/ml mouse interleukin 1 or 100 nM phorbol myristic acetate. JNK, p38, and ERK protein kinase activity was measured in an immune complex kinase assay using 3 μg of the substrates GST-Jun, GST-ATF2, and myelin basic protein (MBP), respectively. Protein kinase assays were performed using 40 μl 20 mM Hepes (pH 7.4), 20 mM MgCl2, 20 mM β-glycerophosphate, 2 mM dithiothreitol, 0.1 mM sodium orthovanadate, 50 μM [γ-^32P]ATP (10 Ci/mmol). After incubation for 30 minutes at 30° C., phosphorylation of substrates was analyzed by polyacrylamide gel electrophoresis and autoradiography.
# [5] = system: p38; assay: Immune complex protein kinase assay: p38, substrate GST-ATF2; format: biochemical, Chinese hamster; conditions: in vitro, 3 μg GST-ATF2
# Experimental: as §1
# [6] = system: ATF2 transcriptional activity; assay: GAL4 luciferase reporter assay in CHO cells: GAL4-ATF2; format: cell-based, Chinese hamster
# Experimental: In these experiments, CHO cells were cotransfected with constructs encoding the transcription factors and JIP-1 using previously described methods. Dérijard et al., supra; Sluss et al., supra; Gupta et al., supra. A luciferase reporter plasmid was used to monitor the expression of the transcription factors. Transfection efficiency was determined using a β-galactosidase expression vector. Constructs used in these experiments included GAL4 fusions with the c-myc, Sp1 and VP16 activation domains (described in Whitmarsh et al., Science, 269:403 (1995); Davis, Science, 269:403 (1995); Gille et al., Curr. Biol., 5:1191 (1995)). Other constructs used were GAL4-c-Jun, in which GAL4 is fused to c-Jun; GAL4-c-Jun (S63A/S73A), in which GAL4 is fused to a mutant c-Jun in which the serines at positions 63 and 73 have been changed to alanines; GAL4-ATF2, in which GAL4 is fused to wild type ATF2 (ATF2(Thr-69, 71)); GAL4-ATF2 (T69A/T71A) (ATF2(Ala-69/71)), in which GAL4 has been fused to a mutant ATF2 in which the […] at positions 69 and 71 have been changed to alanines; GAL4-Elk-1, in which GAL4 has been fused to Elk-1; and GAL4-Elk-1 (S383A), in which GAL4 has been fused to a mutant Elk-1 in which the serine at position 383 has been changed to an alanine. Gupta et al., EMBO J, 15:2760-2770 (1996); Raingeaud et al., Mol. Cell. Biol., 16:1247-1255 (1996); Whitmarsh et al. Science, 269:403-407 (1995).
# Insertional overlapping PCR, described in detail in Ho, supra, was used to construct expression vectors for the JNK binding domain (JBD; amino acid residues 127-281) of JIP-1 and for a mutant JIP-1 lacking the SH3 (amino acid residues 491-540) domain.
# Transfected cells were activated by treatment with 10% (v/v) fetal calf serum, and luciferase and β-galactosidase activities were measured in cell lysates at 48 hours post-transfection. The data are presented as the ratio of luciferase activity (light units) to β-galactosidase activity (OD units) measured in the cell extracts (mean±SEM (n=3)), and are normalized to the luciferase activity detected in the absence of JBD (FIGS. 4A and 4B) or ATF2 (FIG. 4C).
molecule,measurement,setting,value
B1,co-immunoprecipitation of JIP-1 with ERK2,[1],did not co-immunoprecipitate
same,co-immunoprecipitation of JIP-1 with p38,[2],did not co-immunoprecipitate
same,binding of JNK compared with binding of JNK to ATF2 or c-Jun,[3],significantly greater
same,phosphorylation of c-Jun by JNK,[4],markedly inhibited
same,phosphorylation of substrate by p38,[5],no significant change
same,basal transcriptional activity of ATF2 mutated at JNK phosphorylation sites,"[6]; GAL4-ATF2 (T69A/T71A), FIG. 4B",not markedly inhibited
same,JNK-regulated gene expression,"[6]; GAL4-ATF2 reporter, CHO cells, FIG. 4C",inhibition
same,ATF2 transcriptional activity,"[6]; wild type GAL4-ATF2, CHO cells, FIG. 4B",Significant inhibition
